Test results as given in article doi:10.1101/2024.02.24.581848.

Target: HigC SecB^TA chaperone of the E. coli NT1F31 HigBAC system (E. coli NT1F31)
Experiment: ITC

| Binder | Kd [µM] | effective KD with 1.5-fold molar excess of the HigA ChAD peptide [µM] | stoichiometry N |
| --- | --- | --- | --- |
| GELTAESYDDSYLDDEDADWTATGQGQKSAG [gpV^48-78 peptide] | 0.25 | 6.6 | 0.47 |
| GELTAESYDDSYLAAAAADWTATGQGQKSAG [gpV^48-78 peptide, poly-alanine substitution of the D61DED64 element] | 7 | – | 0.5 |
